Assay results published in the nanobody polyreactivity screen of Harvey et al. (2022).

Test: yeast display, Sf9 membrane polyspecificity reagent, FACS + sequencing; frameworks hold sequencing errors
Method in brief: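 In a synthetic yeast display library (Saccharomyces cerevisiae BJ5465), nanobody expression was induced with galactose for 36–48 hours. FACS gates were set low and high (top ~1%) using anti-HA fluorescence for expression and streptavidin fluorescence for binding of the Sf9 membrane reagent. Each polyreactivity label is drawn from the gate of origin.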

Sequence | polyreactivity (PSR sort gate)
QVQLVESGGGLVQAGGSLRLSCAASGYIFFRNAMGWYRQAPGKEREFVAAIRFSGGNTYYADSVKGRFTISRDNAKNTVYLQMNSLKPEDTAFYYCAADKVRQGHYWTPMEYWGQGTQVTVSS | low polyreactivity
QVQLVESGGGLVQAGGSLRLSCAASGYIFGAYAMGWYRQAPGKERELVAGITASGDSTYYADSVKGRFTISRDNAKNTVYLQMNSLKPEDTAVYYCNAQPDIGLYDRQWKEPYEYWGQGTQVTVSS | low polyreactivity
QVQLVESGGGLVQAGGSLRLSCAASGYIFGGYAMGWYRQAPGKERELVAAISRSGGSTYYADSVKGRFTISRDNAKNTVYLQMNSLKPEDTAVYYCAVRGYTLRYGYWGQGTQVTVSS | high polyreactivity
QVQLVESGGGLVQAGGSLRLSCAASGYIFGNYAMGCYRQAPGKERELVAAISKSGVTTYYADSVKGRFTISRDNAKNTVYLQMNSLKPEDTAVYYCNARSWRPINARYNEYDYWGQGTQVTVSS | low polyreactivity
QVQLVESGGGLVQAGGSLRLSCAASGYIFGRNAMGWYRQAPGKEREFFAAISSSGSSTYYADSVKGRFTISRDKAKNTVYLQMNSLKPEDTAVYYCNADRLRSTHDYWGQGTQVTVSS | high polyreactivity
QVQLVESGGGLVQAGGSLRLSCAASGYIFGRYAMGWYRQAPGKERELVAAISSTGDSTYYADSVKGRFTISRDNAKNTVYLQMNSLKPEDTAVYYCNAVVRRYSYGRYYYWGQGTQVTVSS | high polyreactivity
QVQLVESGGGLVQAGGSLRLSCAASGYIFGYNAMGWYRQAPGKERELVAAINYSGTRTYYADSVKGRFTISRDNAKNTVYLQKNSLKPEDTAVYYCNAVGQLQYVSSDDYWGQGTQVTVSS | high polyreactivity
QVQLVESGGGLVQAGGSLRLSCAASGYIFGYNTMGWYRQAPGKERELVATINWRGSRTYYADSVKARFTISLDNAKNTVYLQMNSLKPEDTAVYYCNADHQFRSSVSGDHDYWGQGTQVTVSS | high polyreactivity
QVQLVESGGGLVQAGGSLRLSCAASGYIFIGYAMGWYRQAPGTERELVATITSGGSTNYADSVKGRFTISRDNAKNTVYLQMNSLNPEETAVYNCAAGRGRYCYSWRYLYAIFDYWGQGTQVTVSS | low polyreactivity
QVQLVESGGGLVQAGGSLRLSCAASGYIFIVNAMGSYRQAPGKERELVAAITDRGGSTYYADSVKGRFTISRDNAKNTVYLQMNSLKPEVTAVYYCAAELVHRLWYRDVHFDYWGQGTQVTVSS | low polyreactivity
QVQLVESGGGLVQAGGSLRLSCAASGYIFKHYAMGWYIQAPGKERELVAAITSGGRTNYADSVKGRFTISRDNAKNTVFLQMNSLIPEDTAVYYCAARRYRYFDGTVPLDYWGQGTLVTVSS | high polyreactivity
QVQLVESGGGLVQAGGSLRLSCAASGYIFKNYAMGWYRQAPGKERELVAAITRRGASTYYADSVKGRFTISRDNAKNTVYLQMNSLKPEDTAVYYCAAYPWPPGEYDYWGQGTQVTVSS | low polyreactivity
QVQLVESGGGLVQAGGSLRLSCAASGYIFKVNSMGWYRQAPGKERELVADISRNSGSTRYADSVKGRFTISRDNAKNTVYLQMNSLKPDDTAVYYFAADGRYWVKPGSPWDRSRYDYWGQGTQVTVSS | low polyreactivity
QVQLVESGGGLVQAGGSLRLSCAASGYIFKYNAMGWYRQAPGKERELVAAISSGGSTYYADSVKGRFTISRDNAKNTVYLQMNSLKPEDTAVYYCAARGVRSARIYYYWGQGTQVTVSS | high polyreactivity
QVQLVESGGGLVQAGGSLRLSCAASGYIFKYYAMGWYRQAPGKERELVTAIRSNDDSTYYADSVKGRFTISRDTAKNTVYLQMNSLKPEDTAVYYCAAATYGTRLRRYYYWGQGTQVTVSS | high polyreactivity
QVQLVESGGGLVQAGGSLRLSCAASGYIFLAYAKGWYRQAPGKERELVADNTYADSVKGRFTISRDNAKNTVYLKMNSMKPEDTAVYYCNADEVYDEYSYDYWGHGTQVTVSS | low polyreactivity
